The source of these data is US6967029.

Test [1] deals with endogenous c-kit of COS-1 cells (cells transfected with V19.8 alone). The experiment in a line: 1.6 nM rat 125I-SCF^1-164 + 320 nM unlabelled rat SCF^1-164, membranes of COS-1 cells transfected with V19.8 alone.
The target of test [2] is human recombinant c-kit ligand binding plus transmembrane domains (hckit-LT1) expressed in COS-1 cells (human) (UniProt P10721). The experiment in a line: 1.6 nM rat 125I-SCF^1-164 + 320 nM unlabelled rat SCF^1-164, membranes of COS-1 cells transfected with V19.8:hckit-LT1.
Test [3] has as its target endogenous c-kit of COS-1 cells (cells transfected with V19.8 alone). In words: 1.6 nM rat 125I-SCF^1-164 on membrane fractions of COS-1 cells transfected with V19.8 alone.
Test [4] concerns the target human recombinant c-kit ligand binding plus transmembrane domains (hckit-LT1) expressed in COS-1 cells (human) (UniProt P10721). In words: 1.6 nM rat 125I-SCF^1-164 on membrane fractions of COS-1 cells transfected with V19.8:hckit-LT1.
The target in test [5] is endogenous c-kit of COS-1 cells (cells transfected with V19.8 alone). In words: 1.6 nM human 125I-SCF^1-164 on membrane fractions of COS-1 cells transfected with V19.8 alone.
Test [6] shares this target. The experiment in a line: 1.6 nM human 125I-SCF^1-164 + 320 nM unlabelled human SCF^1-164, membranes of COS-1 cells transfected with V19.8 alone.
Test [7] concerns the target human recombinant c-kit ligand binding plus transmembrane domains (hckit-LT1) expressed in COS-1 cells (human) (UniProt P10721). In words: 1.6 nM human 125I-SCF^1-164 + 320 nM unlabelled human SCF^1-164, membranes of COS-1 cells transfected with V19.8:hckit-LT1.
The target is the same in test [8]. In words: 1.6 nM human 125I-SCF^1-164 on membrane fractions of COS-1 cells transfected with V19.8:hckit-LT1.

Turning to “rat SCF^1-164 (radioiodinated; Example 15) (from UniProt P21581 26-189) (ligand)”, the CPM Bound in test [1] was 550 cpm; in test [2], 1100 cpm; in test [3] it was 1100 cpm; in test [4] it was 70000 cpm.
As to “human SCF^1-164 (radioiodinated; Examples 13 and 15) (from UniProt P21583 26-189) (ligand)”, the CPM Bound in test [5] was determined as 2160 cpm; in test [6] it was 2150 cpm; in test [7], 2380 cpm; in test [8], 59400 cpm.
